Assay results from US20250136709A1 (DEVELOPMENT CENTER FOR BIOTECHNOLOGY, published 2025).

Legend:
mCD73hF4 = target: T1, mCD73hF4 (human; mouse, UniProt Q61503 307-551, limits assumed); experiment: ELISA, antibody titrated; panel mCD73 hF4
T1 construct: Mouse-human domain swapping protein, expressed in F293 cells
T1 sequence: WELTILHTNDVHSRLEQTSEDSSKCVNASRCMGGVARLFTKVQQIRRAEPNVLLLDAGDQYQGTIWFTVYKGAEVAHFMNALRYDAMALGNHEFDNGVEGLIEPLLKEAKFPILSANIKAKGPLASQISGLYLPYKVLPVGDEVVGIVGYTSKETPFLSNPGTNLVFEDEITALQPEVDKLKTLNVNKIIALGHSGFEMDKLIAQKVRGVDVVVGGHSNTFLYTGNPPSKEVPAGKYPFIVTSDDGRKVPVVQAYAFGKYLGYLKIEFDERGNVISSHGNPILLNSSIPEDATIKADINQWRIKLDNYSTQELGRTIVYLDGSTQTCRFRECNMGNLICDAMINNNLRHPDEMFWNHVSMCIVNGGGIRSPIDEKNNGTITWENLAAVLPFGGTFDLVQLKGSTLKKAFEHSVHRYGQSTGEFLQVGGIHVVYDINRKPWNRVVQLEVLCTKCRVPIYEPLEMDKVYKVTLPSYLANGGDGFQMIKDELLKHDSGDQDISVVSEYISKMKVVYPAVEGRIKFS

mCD73hF1 (mouse; human) [1] = target: mCD73hF1 (mouse; human) (UniProt Q61503); experiment: ELISA, antibody titrated; panel mCD73 hF1
[2] = target: mouse CD73-D296E-K297R (mouse) (UniProt Q61503); experiment: ELISA, 10H5 titrated on the mutant protein
[3] = target: mCD73hF1-S269A (mouse; human) (UniProt Q61503); experiment: ELISA, 10H5 titrated on the mutant protein
[4] = target: T2, human CD73 on cells (MDA-MB-231, Calu-1, KLM-1, human CD4+ T-cells) (human, UniProt P21589 27-549); experiment: cell-based or functional assay
T2 sequence: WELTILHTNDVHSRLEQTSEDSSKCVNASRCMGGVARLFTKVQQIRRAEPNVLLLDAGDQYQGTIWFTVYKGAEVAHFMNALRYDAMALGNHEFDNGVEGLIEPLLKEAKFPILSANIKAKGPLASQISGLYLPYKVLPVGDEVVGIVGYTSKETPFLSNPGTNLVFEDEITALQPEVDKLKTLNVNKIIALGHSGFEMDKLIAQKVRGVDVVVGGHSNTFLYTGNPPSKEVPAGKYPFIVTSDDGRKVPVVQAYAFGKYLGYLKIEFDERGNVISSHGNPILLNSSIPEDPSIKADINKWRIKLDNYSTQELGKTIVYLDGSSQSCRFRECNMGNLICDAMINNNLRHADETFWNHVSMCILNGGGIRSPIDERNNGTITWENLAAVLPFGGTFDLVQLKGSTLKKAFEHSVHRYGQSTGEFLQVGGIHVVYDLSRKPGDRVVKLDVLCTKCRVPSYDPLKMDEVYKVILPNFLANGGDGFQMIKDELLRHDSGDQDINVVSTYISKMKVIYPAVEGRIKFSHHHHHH

mCD73hF3 (mouse; human) = mCD73hF3 (mouse; human) (UniProt Q61503); experiment: ELISA, antibody titrated; panel mCD73 hF3
[5] = target: mouse CD73-D296E-K297R (mouse) (UniProt Q61503); experiment: ELISA
[6] = target: mCD73hF1-R297K (mouse; human) (UniProt Q61503); experiment: ELISA
mCD73hF2 (mouse; human) = mCD73hF2 (mouse; human) (UniProt Q61503); experiment: ELISA, antibody titrated; panel mCD73 hF2
human CD73 [7] = target: T3, human CD73 (human, UniProt P21589 27-549); experiment: Biacore SPR
T3 construct: the antigen of the Biacore assay is only called human CD73 antigen; also called human CD73 antigen; Recombinant Human CD73-6xHis
T3 sequence: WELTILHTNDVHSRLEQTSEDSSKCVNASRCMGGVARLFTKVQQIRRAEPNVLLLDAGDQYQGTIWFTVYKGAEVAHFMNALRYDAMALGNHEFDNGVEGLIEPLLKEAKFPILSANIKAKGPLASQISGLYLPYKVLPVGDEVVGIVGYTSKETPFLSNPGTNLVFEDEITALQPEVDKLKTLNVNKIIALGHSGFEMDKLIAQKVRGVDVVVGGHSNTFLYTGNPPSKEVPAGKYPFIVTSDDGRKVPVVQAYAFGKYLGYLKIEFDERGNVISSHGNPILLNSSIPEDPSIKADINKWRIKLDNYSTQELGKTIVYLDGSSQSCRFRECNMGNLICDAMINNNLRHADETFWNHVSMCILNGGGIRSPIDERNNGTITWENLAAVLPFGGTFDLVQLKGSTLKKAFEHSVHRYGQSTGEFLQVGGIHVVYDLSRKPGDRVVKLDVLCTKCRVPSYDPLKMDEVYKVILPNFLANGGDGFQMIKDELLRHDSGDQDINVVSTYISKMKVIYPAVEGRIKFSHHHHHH

mCD73hF1-K206A-N211G = target: T4, mCD73hF1-K206A-N211G (mouse; human, UniProt Q61503 29-270; Q61503 307-551); experiment: ELISA, antibody titrated; panel mCD73 hF1 K206A N211G
T4 chain: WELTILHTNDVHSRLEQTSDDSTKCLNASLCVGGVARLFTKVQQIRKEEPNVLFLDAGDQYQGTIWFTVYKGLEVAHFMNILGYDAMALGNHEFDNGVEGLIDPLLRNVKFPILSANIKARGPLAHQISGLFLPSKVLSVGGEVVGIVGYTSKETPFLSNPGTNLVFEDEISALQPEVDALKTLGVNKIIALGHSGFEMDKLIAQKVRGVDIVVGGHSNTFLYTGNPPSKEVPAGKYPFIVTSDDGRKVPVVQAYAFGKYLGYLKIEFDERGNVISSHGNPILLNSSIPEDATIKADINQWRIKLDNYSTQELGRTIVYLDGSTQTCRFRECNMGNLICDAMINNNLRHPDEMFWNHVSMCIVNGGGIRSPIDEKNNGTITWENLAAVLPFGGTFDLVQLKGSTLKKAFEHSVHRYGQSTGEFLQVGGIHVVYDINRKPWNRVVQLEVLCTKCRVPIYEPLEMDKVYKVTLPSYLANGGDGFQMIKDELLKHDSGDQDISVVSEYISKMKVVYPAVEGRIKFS

human CD73 [8] = target: T3, human CD73; experiment: Biacore SPR; remark: listed apart in the source
mCD73hF1 (mouse; human) [9] = target: mCD73hF1 (mouse; human) (UniProt Q61503); experiment: ELISA, antibody titrated; right panel mCD73 hF1

B1: 10H5 antibody (antibody, V domains shown)
VH: QVKLQQSGAELVKPGASVKISCKASGYVFSSYWINWVKQRPGKGLEWIGQIYPGDGNTNYNRNFKGKATLTADKSSSTAYMQLSSLTSEDSAVYFCAGFADWGQGTTVTVSS
VL: DIELTQSPSSLSASLGERVSLTCRASQDIGDSLIWLQQEPDGTIKRLIYATSSLDSGVPKRFSGSRSGTSYSLTISSVEAEDAATYYCQQYSGYPLTFGSGTKLEIK
notes: Mouse scFv-derived variable domains put into an expression vector with CH and CL chains (full-length chimeric antibody); also called 10H5 chimeric; 10H5 MM
mCD73hF4
  EC50 (read off the curve): ~0.2 nM
mCD73hF1 (mouse; human) [1]
  EC50 (read off the curve): 0.3 nM
[2]
  EC50 (read off the curve): 0.2 nM
[3]
  EC50 (read off the curve): 0.5 nM
[4]
  AMP concentration in supernatant by LC/MS, MDA-MB-231 cells, 400 µM AMP, 10 nM antibody, 6 hours: 347 µM
  AMP concentration in supernatant by LC/MS, MDA-MB-231 cells, 400 µM AMP, 10 nM antibody, 24 hours: 290 µM
  AMP consumption, Calu-1 cells, 10 nM antibody, 24 hrs: < 20%
  AMP consumption, MDA-MB-231 cells, 10 nM antibody, 6 hr: < 10%
  AMP consumption, MDA-MB-231 cells, 10 nM antibody, 24 h: < 50%
mCD73hF3 (mouse; human)
  EC50 (read off the curve): 0.2 nM
[5]
  Kd: 0.098 nM
[6]
  binding affinity relative to that to mCD73hF1: 0.1 fold
mCD73hF2 (mouse; human)
  EC50 (read off the curve): 0.2 nM
Human CD73 [7]
  Kd: 0.683 nM
mCD73hF1-K206A-N211G
  EC50 (read off the curve): ~0.2 nM
Human CD73 [8]
  koff: 5.78e-05 s⁻¹
  kon: 84600 M⁻¹ s⁻¹
mCD73hF1 (mouse; human) [9]
  EC50 (read off the curve): 0.3 nM
